Results from paper PMC5662892.

Test system: ORC-Qdot705 (Orc1-6) (budding yeast)
Experiment: single-molecule TIRFM
Settings: RPA: 20 mM Tris pH 7.5, 50 mM NaCl, 2 mM EDTA, 0.2 mg/ml BSA, ORC: 25 mM HEPES pH 7.6, 12 mM MgOAc, 50 uM ZnOAc, 1 mM DTT, 225 mM KGlut, 3 mM ATP

lambda-ARS1
binding signal (% of binding positions at ARS1 site): 12.8
